The record followed here is patent publication US20150086555A1.

Read-outs that look alike come from different tables or passages of the source.

Details in all cases: remark: other sources report otherwise
The target in assay [1] is T1, recombinant soluble homotrimeric HA of A/common magpie/Hong Kong/5052/07 (H5N1) (Influenza A virus A/common magpie/Hong Kong/5052/2007(H5N1)). As to the kind of experiment: HA microarray, BCC supernatant.
The target in assay [2] is recombinant homotrimeric HA A/common magpie/Hong Kong/5052/07 H5N1 (Influenza A virus A/common magpie/Hong Kong/5052/2007(H5N1)). As to the kind of experiment: protein microarray, purified IgG, trimeric HA.
The target of assay [3] is T1, recombinant soluble homotrimeric HA of …. As to the kind of experiment: trimeric HA microarray, transfection supernatant set 4.
The target is the same in assay [4]. As to the kind of experiment: trimeric HA microarray, transfection supernatant set 3.
Assay [5] has the same target.
The target is the same in assay [6]. As to the kind of experiment: trimeric HA microarray, transfection supernatant set 1.
The target is the same in assay [7]. As to the kind of experiment: trimeric HA microarray, transfection supernatant set 2.
For assay [8], the target named is recombinant soluble homotrimeric HA, A/common magpie/Hong Kong/5052/07 H5N1 (Influenza A virus A/common magpie/Hong Kong/5052/2007(H5N1)). As to the kind of experiment: microarray, transfection SN IgG, trimeric HA.
For assay [9], the target named is T1, recombinant soluble homotrimeric HA of …. As to the kind of experiment: trimeric HA microarray, transfection supernatant set 5.
For assay [10] the target is unchanged. As to the kind of experiment: HA microarray, control antibody.

B1: TCN-534 (5249_B02) (antibody, V domains shown)
VH: QVQLVQSGAEVKKPGSSVKVSCRESGGTFNGYTITWVRQAPGQGLEWMGGIIPMMGTVNYAQKLQGRVTITTDYFTKTAYMDLNNLRSEDTAMYYCVKIRYTGQQLLWGQGTLVTVSS
VL: DIQMTQSPSTLSASIGDRVTITCRASQSIASWLAWYQQKPGKAPKLLIYEAVNLESGVPSRFSGSGSGTDFTLTISSLQPDDFATYFCQHYGTISQTFGGGTKVEIK
In the case of B1, the Trimeric HA Binding: RLU was 32500 RLU in assay [1], 16500 RLU in assay [2] and 127 RLU in assay [3].

B2: TCN-531 (5091_H13) (antibody, V domains shown)
VH: EVQLVESGGDLVQPGRSLKLSCTGSGFTFGDYGVTWVRQAPGKGLEWVGFIRTRPWGGTADTAASVKGRFTISRDDSKSLAYLQMNSLKTEDTAVYYCCRDAPPNVEVASMTNWYFDLWGRGTLVTVSS
VL: DIQLTQSPSSLSASVGDRVTITCRASQGILNCLAWYQQKPGKVPNLLMYAASTLQSGVPSRFSGSGFGTDFTLTISSLQPEDVATYYCQTYGGVSTFGGGTKVEIR
With B2, the Trimeric HA Binding: RLU is 674 RLU in assay [2] and 37 RLU in assay [4].

B3: TCN-535 (5246_P19) (antibody, V domains shown)
VH: QVQLVQSGSEVKKPGTSVKVSCTASGSVFTNYGISWVRQAPGQGLEWMGGIIPLFGAAKYAQKFQGRVTITADESTKTVYMELSRLTSKDTAIYFCAKAPRVYEYYFDQWGQGTPVTVSS
VL: EIVLTQSPGTLSLSPGERATLSCRASQSVSSSQLAWYQQKPGQAPRLIIYGASTRATGIPDRFSGSGSGTDFTLTIGRLEPEDFAVFFCQQYSTSPPTFGQGTKVDFK
Turning to B3, the Trimeric HA Binding: RLU in assay [1] was 45900 RLU; in [2] it was 20400 RLU; in assay [3], 477 RLU.

B4: TCN-530 (5248_H10a) (antibody, V domains shown)
VH: QVQLVQSGAEVRKPGSSVKVSCKASGGPFMSYAIGWVRQAPGQGLEWMGGINPVFGRPHYAQKFQGRVTIATDDSTKTSYMELSSLTSEDTGMYYCASRYSRSSPGTFESWGQGTLVTVSS
VL: EIVMTQFPATLSVSPGERVTLSCRASQSVSNNLAWYQQKPGQPPRLLIYDASTRATGVPAKFSGTGSGTEFTLSISSLQSEDFAVYYCQQYHNWPPSYSFGLGTKLEIK
Take B4: the Trimeric HA Binding: RLU in assay [1] was found to be 42500 RLU; in [2], 10300 RLU; in assay [4], 5580 RLU.

B5: TCN-564 (5256_A17b) (antibody, V domains shown)
VH: QVQLVQSGADVKKPGSSVTVSCKASGGSFSNYGINWVRQAPGQGLEWMGGIIPLINAPNYAPKFQGRVTITADMFSNIVSLQLTSLRTDDTAVYYCARRKMTTAIDYWGQGTLVTVSS
VL: QPVLSQPPSASASLGASVTLTCTLSSGFDNYQVAWYQQRPGKGPRFVMRVGNGGNVASKGDGIPDRFSVSGSGLNRYLTIKNIQEDDESDYYCGADHGSGNNFVSPYVFGGGTKLTVL
As to B5, the Trimeric HA Binding: RLU in assay [5] is 20800 RLU.

B6: TCN-523 (5248_A17) (antibody, V domains shown)
VH: QVQLVQSGAEVKKPGSSVKVSCKASGGSFSNYAFSWVRQAPGQGLEWMGGTIPLLGTTNYAQKFQGRVTISADQFTSTAYMELGSLRSEDTAVYYCTRRKMTTAFDSWGQGTLVTVSS
VL: QPVLTQPPSASASLGASVTLTCTLSSAYSNYKVDWYQQRPGKGPRFVMRVGTGGIVGSKGDGIPDRFSVLGSGLNRYLTIKNIQEEDESDYHCGADHGSGSNFVSPYVFGGGTKLTVL
As for B6, the Trimeric HA Binding: RLU in [1] was determined as 45800 RLU; in [6], 6240 RLU; in [7], 7210 RLU; in assay [8], 33900 RLU; in [2], 20900 RLU; in assay [4], 640 RLU. In addition, the Trimeric HA Binding: RLU in [3] was 2130 RLU.

B7: TCN-563 (5237_B21) (antibody, V domains shown)
VH: QVQLAQSGAEVKRPGSSVKVSCTASGGIFRKNAISWVRQAPGQGLEWMGGIIAVFNTANYAQKFQGRVKITADESGNTAYMELSSLRSDDTAVYYCASHPKYFYGSGSYPDFWGQGTLVTVSS
VL: QSALTQPRSVSGSPGQSVTISCTGSSSDVGASNSVSWYQQHPGKAPKLVIYDVTERPSGVPHRFSGSKSGNTASLTVSGLQPEDEADYFCCAYGGKYLVVFGGGTKVTVL
For B7, the results for the Trimeric HA Binding: RLU in assay [1], in assay [7] and in assay [5] were 27500 RLU, 52800 RLU and 20000 RLU, respectively.

B8: TCN-538 (3206_O17) (antibody, V domains shown)
VH: QITLKESGPTLVKPTQTLTLTCVFSGFSLSITGVRVGWIRQPPGKALEWLALISWDDEKHYSPSLQSRLTITKDTSKNQVVLTMTNLDPVDTATYYCARSTDRGHVLRYFGWMLPGDAFDVWGQGTMVTVSS
VL: DIVMTQSPDFLPVSLGERATINCKSSQRVLYSSNNKNYLAWYQLKPGQPPKLIIYWASTRESGVPDRFSGSGSGTEFTLTISSLQAEDVAVYYCQQYYSRPYTFGQGTKLEIK
With B8, the figures for the Trimeric HA Binding: RLU in assay [1], in assay [9] and in assay [2] were 18700 RLU, 3140 RLU and 5140 RLU, respectively.

B9: TCN-540 (5060_F05) (antibody, V domains shown)
VH: QVQLVQSGGGVVQPGRSLRLSCAASGFTFSSYAMHWVRQAPGKGLEWVAIISYDGNDQYYTDSVKGRFTISRDSSKVYLQMHRLRPEDTAVYYCAKEFETSGYFHGSFDYWGQGILVTVSS
VL: QSALTQPASVSGSPGQSITISCTGTSSDVGGYNYVSWYQQHPGKAPKLLIYEVTNWPSGVSNRFSGSKSGNTASLTISGLQAEDEADYYCSSYAGSSTWVFGGGTRVTVL
In the case of B9, the results for the Trimeric HA Binding: RLU in assay [1], in assay [9] and in assay [2] were 113 RLU, 1800 RLU and 799 RLU, respectively.

B10: TCN-536 (5095_N01) (antibody, V domains shown)
VH: QVQLQQWGAGLLKPSETLSLTCAVYGGSFSVSGYYWSWIRQPPGRGLEWIGEISHGGSTNYNPSLKSRVTISVDTTKNQFSLRLSSVTAADTAVYYCARGTDPDTEVYCRVGNCAAFDYWGQGSLVTVSS
VL: EIILAQSPGTLSLSPGERATLSCRASQFVSTRSLAWYQQRPGQAPRLLIYGASSRATGIPDRFSGSGSGTDFTLTISRLEPEDFAVYYCQHYGYSPRYAFGQGSKVEIK
On to B10, for which the figures for the Trimeric HA Binding: RLU in [2] and in assay [3] were 794 RLU and 27 RLU, respectively.

B11: TCN-504 (3251_K17) (antibody, V domains shown)
VH: QVQLQESGPGLVKPSETLSLTCAVSGVSISNIDFYWGWIRQPPGKGLEWIGNIYYTGITFYNPSLSSRVAISIDTSKNQFSLTLTSVTAADTAMYYCARHYGDSEAINDAFDIWGQGTMLTVSS
VL: EIVMTQSPATLSVSPGERATLSCRASQSVGNSLAWYQQRPGQAPRLLIYGASTRATGIPPRFSGSGSGTEFTLTISSLQTEDFAVYYCQQYINWRPLSFGGGTKVEIK
Turning to B11, the Trimeric HA Binding: RLU in assay [6] turned out to be 29700 RLU; in assay [7], 16800 RLU; in [10], 17000 RLU; in [8] it was 37300 RLU; in assay [4] it was 17800 RLU; in assay [3], 8680 RLU.
